The text below walks through data of PMC4773433, “The Bub1–Plk1 kinase complex promotes spindle checkpoint signalling through Cdc20 phosphorylation” (Nature Communications, 2016).

For one test, the target named is T1, His6-Cdc20^ΔN60 WT (human, UniProt Q12834 61-499).
T1 construct: Cdc20, human, residues 61-499 (Cdc20^ΔN60); also called Cdc20 WT; recombinant Cdc20; source: Sf9, purified (Ni-NTA)
The test is described as follows: pull-down; purified His6–Cdc20^ΔN60 WT or S92E immobilised on Ni-NTA beads, incubated with BubR1N and Mad2, 1 h at room temperature, five washes, immunoblotting. Particulars: both partners purified.

The target in the next test is T2, His6-Cdc20^ΔN60 S92E (human, UniProt Q12834 61-499, S92E).
T2 construct: Cdc20, human, residues 61-499 (Cdc20^ΔN60), phospho-mimicking S92E; also called Cdc20 S92E; source: Sf9, purified (Ni-NTA)
The description is as above. Particulars: both partners purified.

T1 sequence (Q12834 61-499, stated change not applied): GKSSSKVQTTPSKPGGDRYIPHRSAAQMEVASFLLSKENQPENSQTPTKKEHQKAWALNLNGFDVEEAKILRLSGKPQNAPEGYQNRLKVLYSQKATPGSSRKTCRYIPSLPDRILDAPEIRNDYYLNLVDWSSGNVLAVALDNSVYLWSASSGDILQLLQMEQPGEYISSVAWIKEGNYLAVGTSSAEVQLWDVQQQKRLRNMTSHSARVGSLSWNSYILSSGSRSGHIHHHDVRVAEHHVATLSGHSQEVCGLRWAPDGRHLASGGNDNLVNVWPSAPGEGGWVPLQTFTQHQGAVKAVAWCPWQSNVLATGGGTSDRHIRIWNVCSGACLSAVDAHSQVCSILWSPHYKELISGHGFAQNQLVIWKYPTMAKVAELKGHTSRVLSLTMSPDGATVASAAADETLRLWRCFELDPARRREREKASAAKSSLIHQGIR
T2 sequence (Q12834 61-499 S92E): as the sequence (Q12834 61-499, stated change not applied) above, with S32E counted along it

B1: BubR1 N-terminal fragment (BubR1N; residues 1–370) (domain or fragment, human, UniProt O60566 1-370, looked up)
chain: MAAVKKEGGALSEAMSLEGDEWELSKENVQPLRQGRIMSTLQGALAQESACNNTLQQQKRAFEYEIRFYTGNDPLDVWDRYISWTEQNYPQGGKESNMSTLLERAVEALQGEKRYYSDPRFLNLWLKLGRLCNEPLDMYSYLHNQGIGVSLAQFYISWAEEYEARENFRKADAIFQEGIQQKAEPLERLQSQHRQFQARVSRQTLLALEKEEEEEVFESSVPQRSTLAELKSKGKKTARAPIIRVGGALKAPSQNRGLQNPFPQQMQNNSRITVFDENADEASTAELSKPTVQPWIAPPMPRAKENELQAGPWNTGRSLEHRPRGNTASLIAVPAVLPSFTPYVEETARQPVMTPCKIEPSINHILSTRK
notes: source: bacteria, purified (Ni-NTA, TEV digestion, Resource Q, Superdex 200)
Consider B1, for which the binding result with His6-Cdc20^ΔN60 WT and with His6-Cdc20^ΔN60 S92E was “binds” in each case.
